Results taken from patent US20230055711A1 (BIOSION, published 2023).
Where two headings read alike, the source gives them in different places.

What was measured:
[1] = molecular target: recombinant human BCMA-his protein (Acro biosystems, Cat #BCA-H522Y) (human) (UniProt Q02223); test: competitive ELISA: coated human BCMA-his, blocked ligand biotin-labeled BAFF-Fc
[2] = molecular target: recombinant human BCMA-his protein (Acro biosystems, Cat #BCA-H522Y) (human) (UniProt Q02223); test: competitive ELISA: antibody pre-mixed with biotin-labeled human BCMA-his, competitor coated BCMA BM1 (self-competition)
[3] = molecular target: recombinant human BCMA-his protein (Acro biosystems, Cat #BCA-H522Y) (human) (UniProt Q02223); test: capture ELISA: antibody captured on the plate, biotin-labeled human BCMA-his detected with streptavidin-HRP
[4] = molecular target: recombinant human BCMA-his protein (Acro biosystems, Cat #BCA-H522Y) (human) (UniProt Q02223); test: competitive ELISA: coated human BCMA-his, blocked ligand biotin-labeled BAFF-Fc; remark: listed apart in the source
[5] = molecular target: recombinant human BCMA-his protein (Acro biosystems, Cat #BCA-H522Y) (human) (UniProt Q02223); test: competitive ELISA: antibody pre-mixed with biotin-labeled human BCMA-his, competitor coated BCMA BM1 (self-competition); remark: listed apart in the source
[6] = molecular target: recombinant human BCMA-his protein (Acro biosystems, Cat #BCA-H522Y) (human) (UniProt Q02223); test: SPR Biacore T200, antibody captured on Protein G chip, BCMA-his flowed
[7] = molecular target: recombinant human BCMA-his protein (Acro biosystems, Cat #BCA-H522Y) (human) (UniProt Q02223); test: capture ELISA: antibody captured on the plate, biotin-labeled human BCMA-his detected with streptavidin-HRP; remark: listed apart in the source
[8] = molecular target: recombinant human BCMA-his protein (Acro biosystems, Cat #BCA-H522Y) (human) (UniProt Q02223); test: BLI Octet RED96, antibody on AHC sensor, BCMA-his in solution
[9] = molecular target: recombinant human BCMA-his protein (Acro biosystems, Cat #BCA-H522Y) (human) (UniProt Q02223); test: SPR Biacore, antibody captured by anti-human IgG on CM5, BCMA-his flowed
[10] = molecular target: human BCMA on U266 cells (human) (UniProt Q02223); test: cell-based or functional assay
[11] = molecular target: T1, human BCMA on 293F-BCMA cells (human, UniProt Q02223 1-184); test: cell based binding FACS on 293F cells expressing human BCMA, MFI
T1 construct: Stably expressed on 293F cells prepared in house; also called 293F cells expressing human BCMA; Full length human BCMA
T1 sequence: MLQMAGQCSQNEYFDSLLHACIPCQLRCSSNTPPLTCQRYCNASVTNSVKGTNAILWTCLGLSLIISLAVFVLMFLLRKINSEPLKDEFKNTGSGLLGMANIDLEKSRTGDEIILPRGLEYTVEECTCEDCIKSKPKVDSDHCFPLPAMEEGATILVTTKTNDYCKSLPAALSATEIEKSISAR

[12] = molecular target: T2, cynomolgus BCMA-his protein (Acro biosystems, Cat #BCA-052H7) (cynomolgus monkey, UniProt A0A2K5UD97 1-53); test: indirect ELISA on coated cynomolgus BCMA-his
T2 construct: Bought; also called cynomolgus monkey BCMA protein; not shown: his tag
T2 sequence (A0A2K5UD97 entry or part of it): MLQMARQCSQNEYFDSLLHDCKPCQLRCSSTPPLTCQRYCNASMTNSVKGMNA

human BCMA on U266 cells [13] = molecular target: T3, human BCMA on U266 cells (human, UniProt Q02223 1-184); test: cell-based or functional assay
T3 sequence (looked up): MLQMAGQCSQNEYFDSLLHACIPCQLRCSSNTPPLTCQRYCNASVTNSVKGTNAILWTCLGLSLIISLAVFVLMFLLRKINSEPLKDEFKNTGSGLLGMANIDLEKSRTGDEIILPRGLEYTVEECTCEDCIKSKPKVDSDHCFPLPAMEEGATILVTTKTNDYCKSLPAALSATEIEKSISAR

[14] = molecular target: recombinant human BCMA-his protein (Acro biosystems, Cat #BCA-H522Y) (human) (UniProt Q02223); test: competitive ELISA: antibody pre-mixed with biotin-labeled human BCMA-his, competitor coated BCMA BM1
human BCMA on U266 cells [15] = molecular target: T3, human BCMA on U266 cells; test: cell based binding FACS on U266 cells, MFI
[16] = molecular target: recombinant human BCMA-his protein (Acro biosystems, Cat #BCA-H522Y) (human) (UniProt Q02223); test: SPR Biacore, antibody captured on CM5 chip, BCMA-his flowed
[17] = molecular target: recombinant human BCMA-his protein (Acro biosystems, Cat #BCA-H522Y) (human) (UniProt Q02223); test: competitive ELISA: antibody pre-mixed with biotin-labeled human BCMA-his, competitor coated BCMA BM1; remark: listed apart in the source
[18] = molecular target: recombinant human BCMA-his protein (Acro biosystems, Cat #BCA-H522Y) (human) (UniProt Q02223); test: SPR Biacore T200, antibody captured by anti-mouse IgG on CM5, BCMA-his flowed

BCMA BM1, full-length antibody containing the BCMA-binding portion of GSK2857916
IC50 [1]: 10.7 nM | IC50 [2]: 2.89 nM | EC50 [3]: 0.569 nM | IC50 [4]: 12.6 nM | IC50 [5]: 2.64 nM | Kd [6]: 0.742 nM | koff [6]: 0.000245 s⁻¹ | kon [6]: 330000 M⁻¹ s⁻¹ | EC50 [7]: 1.11 nM | Kd [8]: 0.436 nM | koff [8]: 0.000125 s⁻¹ | kon [8]: 286000 M⁻¹ s⁻¹ | Kd [9]: 0.578 nM | koff [9]: 0.000141 s⁻¹ | kon [9]: 244000 M⁻¹ s⁻¹

isotype control antibody (as isotype control-DT3C conjugate)
Max inhibition on cell viability (%), antibody-DT3C conjugate on U266 cells [10]: 17.8%

B1: huB1H2-V10 (antibody, human IgG1, kappa, V domains shown)
VH: QVQLVQSGAEVKKPGASVKVSCKASGYTLTNYVMHWVRQAPGQGLEWIGFIIPFNDGTKYNEHFKGRVTITSDTSISTAYMQLSSLRSEDTAVYYCARYDFEGYFDVWGQGTLVTVSS
VL: DIQMTQSPSSLSASVGDRVTITCSASQDITNFLNWYQQKPGKAPKLLIYSTSRLHSGVPSRFSGSGSGTDFTLTISSLQPEDIATYYCQQYSNLPWTFGQGTKVEIKR
notes: Humanized IgG1/kappa; cell supernatant in the Octet assay, purified antibody in Biacore, ELISA and FACS
EC50 [11]: 1.2 nM | EC50 [3]: 0.47 nM | IC50 [4]: 10.2 nM | EC50 [12]: ~25400 nM | IC50 (nM), cell killing activity of antibody-DT3C conjugate on U266 cells (internalization assay) (human BCMA on U266 cells [13]): 0.19 nM | Max inhibition on cell viability (%), antibody-DT3C conjugate on U266 cells (human BCMA on U266 cells [13]): 99.7% | IC50 [14]: 1.51 nM | Kd [8]: 2.02 nM | koff [8]: 0.000733 s⁻¹ | kon [8]: 363000 M⁻¹ s⁻¹ | Kd [9]: 0.289 nM | koff [9]: 0.00788 s⁻¹ | kon [9]: 2.73e+07 M⁻¹ s⁻¹

B2: BCMA BM1, full-length antibody containing the BCMA-binding portion of GSK2857916 (antibody, human IgG1, kappa, V domains shown)
VH: QVQLVQSGAEVKKPGSSVKVSCKASGGTFSNYWMHWVRQAPGQGLEWMGATYRGHSDTYYNQKFKGRVTITADKSTSTAYMELSSLRSEDTAVYYCARGAIYDGYDVLDNWGQGTLVTVSS
VL: DIQMTQSPSSLSASVGDRVTITCSASQDISNYLNWYQQKPGKAPKLLIYYTSNLHSGVPSRFSGSGSGTDFTLTISSLQPEDFATYYCQQYRKLPWTFGQGTKLEIKR
notes: Prepared in house from the full heavy and light chains; also called benchmark; positive control
EC50 (human BCMA on U266 cells [15]): 17.7 nM | EC50 [11]: 8.86 nM | EC50 [12]: 0.186 nM | IC50 (nM), cell killing activity of antibody-DT3C conjugate on U266 cells (internalization assay) (human BCMA on U266 cells [13]): 1.55 nM | Max inhibition on cell viability (%), antibody-DT3C conjugate on U266 cells (human BCMA on U266 cells [13]): 97%

B3: huB1H2-V33 (antibody, human IgG1, kappa, V domains shown)
VH: QVQLVQSGAEVKKPGASVKVSCKASGYTLTNYVMHWVRQAPGQGLEWIGFIIPFNDGTKYNEHFKGRVTITSDTSISTAYMQLSSLRSEDTAVYYCARYDFEGYFDVWGQGTLVTVSS
VL: DIQMTQSPSSLSASVGDRVTITCSASQDITNFLNWYQQKPGKAPKLLIYSTSRLHSGVPSRFSGSGSGTDFTFTISSLQPEDIATYYCQQYSNLPWTFGQGTKVEIKR
notes: as for B1
EC50 [11]: 0.865 nM | EC50 [3]: 0.439 nM | IC50 [4]: 7.05 nM | EC50 [12]: ~176 nM | IC50 (nM), cell killing activity of antibody-DT3C conjugate on U266 cells (internalization assay) (human BCMA on U266 cells [13]): 0.14 nM | Max inhibition on cell viability (%), antibody-DT3C conjugate on U266 cells (human BCMA on U266 cells [13]): 99.9% | IC50 [14]: 1.45 nM | Kd [8]: 0.349 nM | koff [8]: 0.00341 s⁻¹ | kon [8]: 9.76e+06 M⁻¹ s⁻¹ | Kd [9]: 0.349 nM | koff [9]: 0.00341 s⁻¹ | kon [9]: 9.76e+06 M⁻¹ s⁻¹

B4: mouse anti-BCMA monoclonal antibody B1H2 (antibody, V domains shown)
VH: EVQLQQSGPELVKPGASVKMSCKASGYTLTNYVMHWMKQKPGQGLEWIGFIIPFNDGTKYNEHFKGKATLTSDKSSNTAYMVLSSLTSEDSAVYYCARYDFEGYFDVWGAGTTVTVSS
VL: DIQMTQTTSSLSASLGDRVTISCSASQDITNFLNWYQQKPDGTVKLLIYSTSRLHSGVPSRFSGSGSGTDYSLTISNLEPEDIATYYCQQYSNLPWTFGGGTNLEIK
notes: Hybridoma-derived mouse mAb purified on Protein A; also called Mouse B1H2; mouse antibody B1H2
EC50 (human BCMA on U266 cells [15]): 0.885 nM | EC50 [11]: 0.613 nM | IC50 [1]: 6.09 nM | EC50 [3]: 0.177 nM | IC50 [4]: 8.28 nM | Kd [16]: 0.0757 nM | koff [16]: 0.000783 s⁻¹ | kon [16]: 1.03e+07 M⁻¹ s⁻¹ | IC50 [17]: 1.03 nM | EC50 [12]: 31.4 nM | Kd [18]: 0.203 nM | koff [18]: 0.0011 s⁻¹ | kon [18]: 5.42e+06 M⁻¹ s⁻¹ | IC50 [14]: 0.282 nM | EC50 [7]: 0.702 nM

B5: chimeric B1H2 antibody (antibody, human IgG1, kappa, V domains shown)
VH: EVQLQQSGPELVKPGASVKMSCKASGYTLTNYVMHWMKQKPGQGLEWIGFIIPFNDGTKYNEHFKGKATLTSDKSSNTAYMVLSSLTSEDSAVYYCARYDFEGYFDVWGAGTTVTVSS
VL: DIQMTQTTSSLSASLGDRVTISCSASQDITNFLNWYQQKPDGTVKLLIYSTSRLHSGVPSRFSGSGSGTDYSLTISNLEPEDIATYYCQQYSNLPWTFGGGTNLEIKR
notes: Mouse variable domains fused to human IgG1 / kappa constant regions, made in 293F cells
EC50 [11]: 0.953 nM | EC50 [3]: 0.226 nM | EC50 [12]: 190 nM | Kd [8]: 0.673 nM | Kd [9]: 0.0839 nM
